# Assay results published in patent US20130156770A1 (published 2013).
# B1: Human BCMA (receptor)
# chain: MLQMAGQCSQNEYFDSLLHACIPCQLRCSSNTPPLTCQRYCNASVTNSVKGTNAILWTCLGLSLIISLAVFVLMFLLRKINSEPLKDEFKNTGSGLLGMANIDLEKSRTGDEIILPRGLEYTVEECTCEDCIKSKPKVDSDHCFPLPAMEEGATILVTTKTNDYCKSLPAALSATEIEKSISAR
# Experiments:
# Experiment in all cases: SPR (Biacore)
# BCMA-107 x CD3 = molecular target: BCMA-107 x CD3
# BC 247-C3 x CD3 = molecular target: BC 247-C3 x CD3
# BC 244-C6 x CD3 = molecular target: BC 244-C6 x CD3
binder,measurement,setting,value
B1,Kd,BCMA-107 x CD3,34.2 nM
same,Kd,BC 247-C3 x CD3,0.4 nM
same,Kd,BC 244-C6 x CD3,0.3 nM
